The values below come from IntAct's records for PubMed 21078995.

First the molecules themselves.
B1: Nitrate/nitrite sensor protein NarX (Escherichia coli (strain K12)), P0AFA2 (parent)
chain: MLKRCLSPLTLVNQVALIVLLSTAIGLAGMAVSGWLVQGVQGSAHAINKAGSLRMQSYRLLAAVPLSEKDKPLIKEMEQTAFSAELTRAAERDGQLAQLQGLQDYWRNELIPALMRAQNRETVSADVSQFVAGLDQLVSGFDRTTEMRIETVVLVHRVMAVFMALLLVFTIIWLRARLLQPWRQLLAMASAVSHRDFTQRANISGRNEMAMLGTALNNMSAELAESYAVLEQRVQEKTAGLEHKNQILSFLWQANRRLHSRAPLCERLSPVLNGLQNLTLLRDIELRVYDTDDEENHQEFTCQPDMTCDDKGCQLCPRGVLPVGDRGTTLKWRLADSHTQYGILLATLPQGRHLSHDQQQLVDTLVEQLTATLALDRHQERQQQLIVMEERATIARELHDSIAQSLSCMKMQVSCLQMQGDALPESSRELLSQIRNELNASWAQLRELLTTFRLQLTEPGLRPALEASCEEYSAKFGFPVKLDYQLPPRLVPSHQAIHLLQIAREALSNALKHSQASEVVVTVAQNDNQVKLTVQDNGCGVPENAIRSNHYGMIIMRDRAQSLRGDCRVRRRESGGTEVVVTFIPEKTFTDVQGDTHE

The variants in the assay derive from B1. The settings on record: with narl_ecoli narL.
In the case of MLKRCLSPLTLVNQVALIVLLSTAIGLAGMAVSGWLVQGVQGSAHAINKAGSLRMQSYRLLAAVPLSEKDKPLIKEMEQTAFSAELTRAAERDGQLAQLQGLQDYWRNELIPALMRAQNRETVSADVSQFVAGLDQLVSGFDRTTEMRIETVVLVHRVMAVFMALLLVFTIIWLRARLLQPWRQLLAMASAVSHRDFTQRANISGRNEMAMLGTALNNMSAELAESYAVLEQRVQEKTAGLEHKNQILSFLWQANRRLHSRAPLCERLSPVLNGLQNLTLLRDIELRVYDTDDEENHQEFTCQPDMTCDDKGCQLCPRGVLPVGDRGTTLKWRLADSHTQYGILLATLPQGRHLSHDQQQLVDTLVEQLTATLALDRHQERQQQLIVMEERATIARELQASIAQSLSCMKMQVSCLQMQGDALPESSRELLSQIRNELNASWAQLRELLTTFRLQLTEPGLRPALEASCEEYSAKFGFPVKLDYQLPPRLVPSHQAIHLLQIAREALSNALKHSQASEVVVTVAQNDNQVKLTVQDNGCGVPENAIRSNHYGMIIMRDRAQSLRGDCRVRRRESGGTEVVVTFIPEKTFTDVQGDTHE [H399Q;D400A], the “effect of a mutation on the interaction” value is given as “decreasing interaction”.

On to MLKRCLSPLTLVNQVALIVLLSTAIGLAGMAVSGWLVQGVQGSAHAINKAGSLRMQSYRLLAAVPLSEKDKPLIKEMEQTAFSAELTRAAERDGQLAQLQGLQDYWRNELIPALMRAQNRETVSADVSQFVAGLDQLVSGFDRTTEMRIETVVLVHRVMAVFMALLLVFTIIWLRARLLQPWRQLLAMASAVSHRDFTQRANISGRNEMAMLGTALNNMSAELAESYAVLEQRVQEKTAGLEHKNQILSFLWQANRRLHSRAPLCERLSPVLNGLQNLTLLRDIELRVYDTDDEENHQEFTCQPDMTCDDKGCQLCPRGVLPVGDRGTTLKWRLADSHTQYGILLATLPQGRHLSHDQQQLVDTLVEQLTATLALDRHQERQQQLIVMEERATIARELQDSIAQSLSCMKMQVSCLQMQGDALPESSRELLSQIRNELNASWAQLRELLTTFRLQLTEPGLRPALEASCEEYSAKFGFPVKLDYQLPPRLVPSHQAIHLLQIAREALSNALKHSQASEVVVTVAQNDNQVKLTVQDNGCGVPENAIRSNHYGMIIMRDRAQSLRGDCRVRRRESGGTEVVVTFIPEKTFTDVQGDTHE [H399Q], for which the “effect of a mutation on the interaction” value is given as “decreasing interaction”.

In the case of MLKRCLSPLTLVNQVALIVLLSTAIGLAGMAVSGWLVQGVQGSAHAINKAGSLRMQSYRLLAAVPLSEKDKPLIKEMEQTAFSAELTRAAERDGQLAQLQGLQDYWRNELIPALMRAQNRETVSADVSQFVAGLDQLVSGFDRTTEMRIETVVLVHRVMAVFMALLLVFTIIWLRARLLQPWRQLLAMASAVSHRDFTQRANISGRNEMAMLGTALNNMSAELAESYAVLEQRVQEKTAGLEHKNQILSFLWQANRRLHSRAPLCERLSPVLNGLQNLTLLRDIELRVYDTDDEENHQEFTCQPDMTCDDKGCQLCPRGVLPVGDRGTTLKWRLADSHTQYGILLATLPQGRHLSHDQQQLVDTLVEQLTATLALDRHQERQQQLIVMEERATIARELQDSIAHSLSCMKMQVSCLQMQGDALPESSRELLSQIRNELNASWAQLRELLTTFRLQLTEPGLRPALEASCEEYSAKFGFPVKLDYQLPPRLVPSHQAIHLLQIAREALSNALKHSQASEVVVTVAQNDNQVKLTVQDNGCGVPENAIRSNHYGMIIMRDRAQSLRGDCRVRRRESGGTEVVVTFIPEKTFTDVQGDTHE [H399Q;Q404H], the “effect of a mutation on the interaction” value was “disrupting interaction”. Turning to MLKRCLSPLTLVNQVALIVLLSTAIGLAGMAVSGWLVQGVQGSAHAINKAGSLRMQSYRLLAAVPLSEKDKPLIKEMEQTAFSAELTRAAERDGQLAQLQGLQDYWRNELIPALMRAQNRETVSADVSQFVAGLDQLVSGFDRTTEMRIETVVLVHRVMAVFMALLLVFTIIWLRARLLQPWRQLLAMASAVSHRDFTQRANISGRNEMAMLGTALNNMSAELAESYAVLEQRVQEKTAGLEHKNQILSFLWQANRRLHSRAPLCERLSPVLNGLQNLTLLRDIELRVYDTDDEENHQEFTCQPDMTCDDKGCQLCPRGVLPVGDRGTTLKWRLADSHTQYGILLATLPQGRHLSHDQQQLVDTLVEQLTATLALDRHQERQQQLIVMEERATIARELQDSIAASLSCMKMQVSCLQMQGDALPESSRELLSQIRNELNASWAQLRELLTTFRLQLTEPGLRPALEASCEEYSAKFGFPVKLDYQLPPRLVPSHQAIHLLQIAREALSNALKHSQASEVVVTVAQNDNQVKLTVQDNGCGVPENAIRSNHYGMIIMRDRAQSLRGDCRVRRRESGGTEVVVTFIPEKTFTDVQGDTHE [H399Q;Q404A], the “effect of a mutation on the interaction” value is reported as “disrupting interaction”.
